Our source for the EC50 values is patent US11155602B2, “Polypeptides targeting HIV fusion” (priority 2015, dated 2021).

The test system of this assay is NL-Rluc virus. As to the kind of experiment: Combinectin potency assay: antiviral EC50, NL-Rluc virus in MT-2 cells, luciferase readout. In kind it is cell-based, HIV-1. As for the experimental part:
MT-2 cells, HEK 293T cells and the proviral DNA clone of […] were obtained from the NIH AIDS Research and Reference Reagent Program. MT-2 cells were propagated in RPMI 1640 medium supplemented with 10% heat-inactivated fetal bovine serum (FBS), 10 mM HEPES buffer pH 7.55, and 2 mM L-glutamine. HEK 293T cells were propagated in DMEM media supplemented with 10% heat-inactivated FBS, 10 mM HEPES buffer pH 7.55 and 2 mM L-glutamine. Recombinant NL-Rluc virus, in which a section of the nef gene from the proviral clone of NL4-3 was replaced with the Renilla luciferase gene, was constructed at Bristol-Myers Squibb. The replication-competent virus was harvested 3 days after transfection of HEK 293T cells with the modified pNL-Rluc proviral clone. Transfections were performed using Lipofectamine Plus (Invitrogen, Carlsbad, Calif.), according to manufacturer's instruction. Virus was titered in MT-2 cells using luciferase enzyme activity as a biomarker. The NL-Rluc virus used to infect MT-2 cells a multiplicity of 0.01 for 1 hour before adding to the peptides in 96-well plates. Peptides were serially diluted three-fold and 11 concentrations were plated in triplicate. After 4-5 days of incubation, cells were processed and quantitated for virus growth by the amount of expressed luciferase. Luciferase was quantitated using the Dual Luciferase kit from Promega (Madison, Wis.), with modifications to the manufacturer's protocol. The diluted Passive Lysis solution was pre-mixed with the re-suspended Luciferase Assay Reagent and then re-suspended in STOP & GLO® Substrate (2:1:1 ratio). A total of […] of the mixture was added to each aspirated well on assay plates and luciferase activity was measured immediately on a Wallac TriLux (Perkin-Elmer, Waltham, Mass.). The 50% effective concentration (EC50) was calculated by comparing the amount of luciferase produced in the presence of inhibitory peptide compared to wells where no peptide was added.

B1: 108 (protein)
chain: MASTSGVSDVPRDLEVVAATPTSLLISWDAPAVTVLEYQIDYHPAAVWHALQRFTVPGSKSTATISGLKPGVHYKISVTATTHADNESIMWHPISIYYRTEGSGSHHHHHH
modifications: Adnectin
What is called EC50 is the midpoint of the concentration-response curve. For the molecule B1, the EC50 (Anti-CD4 Adnectin, Table 2) was 170 nM.

B2: 103 (protein)
chain: MASTSGYTSYPIPYDLEVVAATPTSLYIHWYWIAATIISFRITYGETGGNSPVQEFTVPAGQDHATISGLKPGVDYTITVYAVHYEEEYSEFWTGHPISINYRTEGSGSHHHHHH
modifications: Adnectin
For the molecule B2, the EC50 (Anti-CD4 Adnectin, Table 2) was found to be 255 nM.

B3: 364 (protein)
chain: MGHHHHHHGGSVSDVPRDLEVVAATPTSLLISWEYKVHPYRYYRITYGETGGNSPVQEFTVPSVLSTATISGLKPGVDYTITVYAVTYGDPSAPISINYRTEID
modifications: Adnectin
Regarding B3, the EC50 (Anti-N17 Adnectin, Table 3) worked out at 89 nM.

B4: 365 (protein)
chain: MGHHHHHHGGSVSDVPRDLEVVAATPTSLLISWEYKVSGYRYYRITYGETGGNSPVQEFTVPSVLSTATISGLKPGVDYTITVYAVTYGDDSAPISINYRTEID
modifications: Adnectin
Consider B4, for which the EC50 (Anti-N17 Adnectin, Table 3) was greater than 1000 nM.

B5: 366 (protein)
chain: MGHHHHHHGGSVSDVPRDLEVVAATPTSLLISWEYKVYHNRYYRITYGETGGNSPVQEFTVPSVLSTATISGLKPGVDYTITVYAVTYGDDSAPISINYRTEID
modifications: Adnectin
As for B5, under “Anti-N17 Adnectin, Table 3”, the EC50 is greater than 1000 nM.

B6: 367 (protein)
chain: MGHHHHHHGGSVSDVPRDLEVVAATPTSLLISWEYKVHPYRYYRITYGETGGNSPVQEFTVPSVLSSAQLSGLKPGVDYTITVYAVTYGDDSAPISINYRTEID
modifications: Adnectin
Consider B6, for which the EC50 (Anti-N17 Adnectin, Table 3) was found to be 300 nM.

B7: 96 (protein)
chain: MGVSDVPRDLEVVAATPTSLLISWDAPAVTVQSYHIQYWPLGSYQRYQVFSVPGSKSTATISGLKPGVEYQIRVYAETGGADSDQSMGWIQIGYRTEGDKPSQHHHHHH
modifications: Adnectin
On to B7, for which the EC50 (Anti-CD4 Adnectin, Table 2) is 7.8 nM.

B8: 97 (protein)
chain: MGVSDVPRDLEVVAATPTSLLISWDAPAVTVHSYHIQYWPLGWYQRYQVFSVPGSKSTATISGLKPGVEYQIRVYAETRSGLADESFGWIQIGYRTEGDKPSQHHHHHH
modifications: Adnectin
As for B8, under “Anti-CD4 Adnectin, Table 2”, the EC50 amounted to 11 nM.

B9: 98 (protein)
chain: MGVSDVPRDLEVVAATPTSLLISWDAPAVTVHSYHIQYWPLGSYQRYQVFSVPGSKSTATISGLKPGVEYQIRVYAETGGADSDQSMGWIQIGYRTEGDKPSQHHHHHH
modifications: Adnectin
On to B9, for which the EC50 (Anti-CD4 Adnectin, Table 2) came out at 4.9 nM.

B10: 104 (protein)
chain: MASTSGTHWFYSIPHDLEVVAATPTSLTIAWEPPHHTAMGYRITYGETGGNSPVQEFTVPGGYTTAYISGLKPGVDYTITVYAAYYEREYSEHWISHPISINYRTEGSGSHHHHHH
modifications: Adnectin
Take B10: the EC50 (Anti-CD4 Adnectin, Table 2) amounted to 500 nM.

B11: 109 (protein)
chain: MGVSDVPRDLEVVAATPTSLLISWDYPTVTPRYYRITYGETGGNSPVQEFTVPEYIGTATISGLKPGVDYTITVYAVTNDTTIYSISRPISINYRTEIDKPSQHHHHHH
modifications: Adnectin
Take B11: under “Anti-CD4 Adnectin, Table 2”, the EC50 was determined as 320 nM.

B12: 107 (protein)
chain: MGVSDVPRDLEVVAATPTSLLISWDEHTDIYRYYRITYGETGGNSPVQEFTVPAMEHTATISGLKPGVDYTITVYAVTHVYPIMIHQYPISINYRTEIDKPSQHHHHHH
modifications: Adnectin
In the case of B12, the EC50 (Anti-CD4 Adnectin, Table 2) came to 500 nM.

B13: 102 (protein)
chain: MASTSGSSPYLMPYDLEVVAATPTSLFIRWYGSASSIVKFRITYGETGGNSPVQEFTVGGTQLHATISGLKPGVDYTITVYAVHFEHKYSELWIGHPISINYRTEGSGSHHHHHH
modifications: Adnectin
In the case of B13, the EC50 (Anti-CD4 Adnectin, Table 2) was greater than 5500 nM.

B14: 105 (protein)
chain: MASTSGEFYHTKYPYDLEVVAATPTSLEISWRSPTRDWQWFRITYGETGGNSPVQEFTVAGPYRNAIISGLKPGVDYTITVYADVYMPSEGGLVVDTYHPISINYRTEGSGSHHHHHH
modifications: Adnectin
As to B14, the 50% effective concentration (EC50) (Anti-CD4 Adnectin, Table 2) came out at 300 nM.

B15: 101 (protein)
chain: MASTSGSASYLIPSDLEVVAATPTSLSIYWYPVASTIINFRITYVETGGNSPVQEFTVPGSKSTATISGLKPGVDYTITVYAVHYEQKYSEYWIGHPISINYRTEGSGSHHHHHH
modifications: Adnectin
Consider B15, for which the EC50 (Anti-CD4 Adnectin, Table 2) was greater than 400 nM.

B16: 95 (protein)
chain: MASTSGVSDVPRDLEVVAATPTSLLISWDAPAVTVHSYHIQYWPLGWYQRYQVFSVPGSKSTATISGLKPEVEYQIRVYAETGGGGSQQSFGWIQIGYRTEGSGSHHHHHH
modifications: Adnectin
B16: the EC50 (Anti-CD4 Adnectin, Table 2) came to 48 nM.

B17: 99 (protein)
chain: MGHHHHHHGGVSDVPRDLEVVAATPTSLLISWDAPAVTVHSYHIQYWPLGSYQRYQVFSVPGSKSTATISGLKPGVEYQIRVYAETGGADSDQSFGWIQIGYRTPES
modifications: Adnectin
Turning to B17, the EC50 (Anti-CD4 Adnectin, Table 2) came out at 8.5 nM.

B18: 113 (protein)
chain: MGHHHHHHGGVSDVPRDLEVVAATPTSLLISWDAPAVTVHSYHIQYWPLGSYQRYQVFSVPGSKSTATISGLKPGVEYQIRVYAETGRGESDQSFGWIQIGYRTPES
modifications: Adnectin
In the case of B18, for the setting “Anti-CD4 Adnectin, Table 2”, the EC50 was 15.4 nM.

B19: 111 (protein)
chain: MGHHHHHHGGVSDVPRDLEVVAATPTSLLISWDAPAVTVHSYHIQYWPLGSYQRYQVFSVPGSKSTATISGLKPGVEYQIRVYAETGRGESDQSFGWIQIGYRTEES
modifications: Adnectin
Consider B19, for which, for the setting “Anti-CD4 Adnectin, Table 2”, the half-maximal effective concentration (EC50) was 20 nM.

B20: 114 (protein)
chain: MGHHHHHHGGVSDVPRDLEVVAATPTSLLISWDAPAVTVHAYHIQYWPLGFYQGYQVFSVPGSKSTATISGLKPGVEYQIRVYAETGLGDAHQSLGWIQIGYRTPES
modifications: Adnectin
As to B20, the EC50 (Anti-CD4 Adnectin, Table 2) was determined as 12.6 nM.

B21: 110 (protein)
chain: MGHHHHHHGGVSDVPRDLEVVAATPTSLLISWDAPAVTVHSYHIQYWPLGSYQRYQVFSVPGSKSTATISGLKPGVEYQIRVYAETGRGESDQSLGWIQIGYRTEES
modifications: Adnectin
As to B21, the EC50 (Anti-CD4 Adnectin, Table 2) worked out at 28.6 nM.

B22: 112 (protein)
chain: MGHHHHHHGGVSDVPRDLEVVAATPTSLLISWDAPAVTVHSYHIQYWPLGSYQRYQVFSVPGSKSTATISGLKPGVEYQIRVYAETGRGESDQSLGWIQIGYRTPES
modifications: Adnectin
With B22, the EC50 (Anti-CD4 Adnectin, Table 2) stood at 18.4 nM.

B23: 100 (protein)
chain: MASTSGSSSYLMPSDLEVVAATPTSLYIHWYPIASTIINFRITYGETGGNSPVQEFTVPGSQVHATISGLKPGVDYTITVYAVHYEHKYSELWMGHPISINYRTEGSGSHHHHHH
modifications: Adnectin
For B23, the concentration for a half-maximal effect (EC50) (Anti-CD4 Adnectin, Table 2) was 6 nM.

B24: 106 (protein)
chain: MASTSGQAYPEYYFVDLEVVAATPTSLLISWSKPYYNAYSYRITYGETGGNSPVQEFTVLGHDTRAVISGLKPGVDYTITVYAMFIEYIDQEIWHAHPISINYRTEGSGSHHHHHH
modifications: Adnectin
Take B24: the EC50 (Anti-CD4 Adnectin, Table 2) came out at 2400 nM.
